Reference: patent publication US20180147231A1, “METHOD FOR TREATMENT AND PROGNOSIS OF COLORECTAL CANCER” (Oxford University Innovation Limited, priority 2015, published 2018)

Legend:
[1] = tested on: T84 CRC cells (KRAS-mutant, IL22RA1 high); experiment: Primary sphere forming assay, T84 cells; format: cell-based, human; details: 10 ng/mL IL-22 pre-treatment 48 h, spheres cultured 6 days
Procedure: (A) Schematic representation of primary sphere forming assay workflow. Cells were pre-treated with 10 ng/mL IL-22 for 48 hours, filtered to single cells and 1000 cells/well were seeded into 96 well low-binding plates in serum-free media containing 1% methylcellulose, 20 ng/mL EGF, 20 ng/mL bFGF with and without 10 ng/mL IL-22. Four experimental replicates were seeded for each condition. Cultured spheres from (B) Colo205, T84 and SW480 cell lines for 6 days. (C) Bright field microscopy images (4×) of single wells 6 days after seeding (1 experiment representative of 4). (D) MTT assay to assess viability of spheres 6 days after seeding (n=3). (E) Bright field microscopy of T84 spheres (20×) 6 days after seeding. (F) Quantification of spheres after 6 days of culture using ImageJ. Data represent mean+/−SD of 3 independent experiments, each with 3 technical replicates per condition. *p<0.05, one-way ANOVA with Dunnett's post test for multiple comparisons.
Colo205, T84, and SW480 cells were pretreated for 48 h in 48 well plates with 10 ng/mL IL-22 (R&D Systems). Cells were filtered to single cells using […] filter and 1000 cells/well were seeded into 96 well low binding plates (Corning) in 1% methylcellulose in IMDM (R&D Systems), 20 ng/mL recombinant EGF (Sigma), 20 ng/mL recombinant basic FGF (Peprotech), lx insulin-transferrin selenite (ITS) (Sigma) in serum-free DMEM. […]

[2] = tested on: DLD-1 KRAS MUT cells; experiment: Chemotherapy killing assay (MTT), DLD-1 KRAS MUT; format: cell-based, human; details: 48 h pre-treatment with 10 ng/mL IL-22, then 50 μM 5-FU for 48 h
Procedure: (§1) Therefore this isogenic pair differs only in KRAS mutation status and allows a clean system for comparison of KRAS-dependent IL-22 effects without inter-cell line mutational heterogeneity. (A) Representative FACS plots of IL-22RA1 expression and quantification of mean fluorescence intensity (WI) showing similar IL-22RA1 expression in the isogenic pair (4 experimental replicates). […] MTT was added 2 h prior to end of 48 h incubation. Formazan particles were dissolved in DMSO and absorbance was measured at 540 nm. Raw absorbances are blank corrected, normalized to a no treatment, and represented as a % viability compared to the no treatment condition. n=5 independent experiments with 3 experimental replicates. p values computed by non-parametric Mann-Whitney test comparing 5 FU alone to IL-22 pretreatment with 5 FU for each DLD-1 line.
Colo205, T84, SW480, and DLD-1 cells were seeded at a density of 1×10^4 cells/well in 48 well plates. Cells were pre-treated for 48 h with 10 ng/mL IL-22, then subjected to 50 μM oxaliplatin (Sigma) or 5-fluorouracil (Sigma) or vehicle control (DMSO) for 48 h. 50 μg Methylthiazolyldiphenyl-tetrazolium bromide (MTT) (Sigma) was added to each well 2 h prior to the end of incubation. […] Absorbance was measured at 540 nm on Spectrostar Nano plate reader (BMG Labtech).

[3] = tested on: DLD-1 KRAS WT cells (mutant KRAS allele knocked out); experiment: Phosflow analysis of intracellular signaling, DLD-1 KRAS WT; format: cell-based; details: 30 min 10 ng/mL recombinant human IL-22
Procedure: as §1
Adherent Colo205, T84, SW480, and DLD-1 cells were dissociated using StemPro® Accutase® (Life Technologies), filtered through […] filters, and counted by Trypan Blue exclusion. 5×10^5 cells of each line were stained with 5 μL Human IL-22 R alpha 1 Phycoerythrin MAb (Clone 305405) (R&D Systems) or […] isotype rat anti-mouse IgG1 PE (BD Biosciences) and incubated for 30 minutes at room temperature. Cells were washed with PBS, 0.1% BSA, 2 mM EDTA and acquired on the BD LSRII. Analysis was performed using FlowJo (Tree Star) software. […]

[4] = tested on: T84 cells (KRAS-mutant, IL22RA1 high); experiment: Chemotherapy killing assay (MTT), T84 cells; format: cell-based, human; details: 48 h pre-treatment with 10 ng/mL IL-22, then 50 μM oxaliplatin or 5-FU for 48 h
Procedure: (A) MTT assay on Colo205, T84, and SW480 cells pre-treated or not pre-treated for 48 h with 10 ng/mL IL-22, then treated with 50 μM oxaliplatin or 5-FU for 48 h. MTT was added 2 h prior to end of 48 h incubation. Formazan particles were dissolved in DMSO and absorbance was measured at 540 nm. Raw absorbances are blank corrected, normalized to a no treatment or IL-22 only, and represented as a % reduction in viability compared to the no treatment or IL-22 only conditions. n=3 independent experiments with 3 experimental replicates, *p<0.05, ****p<0.0001, one-way ANOVA with Tukey's post test for multiple comparisons.
Colo205, T84, SW480, and DLD-1 cells were seeded at a density of 1×10^4 cells/well in 48 well plates. Cells were pre-treated for 48 h with 10 ng/mL IL-22, then subjected to 50 μM oxaliplatin (Sigma) or 5-fluorouracil (Sigma) or vehicle control (DMSO) for 48 h. 50 μg Methylthiazolyldiphenyl-tetrazolium bromide (MTT) (Sigma) was added to each well 2 h prior to the end of incubation. At the end of the 48 h incubation supernatants were aspirated and formazan particles were solubilized with DMSO and transferred to a fresh plate. Absorbance was measured at 540 nm on Spectrostar Nano plate reader (BMG Labtech).

B1: IL-22: recombinant human IL-22 (R&D Systems), IL-10 superfamily cytokine; human sequence SEQ ID NO: 5 (protein, listed as Homo sapiens)
chain: MAALQKSVSSFLMGTLATSCLLLLALLVQGGAAAPISSHCRLDKSNFQQPYITNRTFMLAKEASLADNNTDVRLIGEKLFHGVSMSERCYLMKQVLNFTLEEVLFPQSDRFQPYMQEVVPFLARLSNRLSTCHIEGDDLHIQRNVQKLKDTVKKLGESGEIKAIGELDLLFMSLRNACI
Clonogenic outgrowth (sphere formation) [1]: enhances clonogenic outgrowth
Protection against 5-fluorouracil mediated cell death [2]: protects against 5 fluorouracil mediated cell death
Phosphorylated ERK1/2 [3]: not IL-22 inducible
Phosphorylated STAT3 [3]: identical extent of phosphorylated STAT3
Protection against oxaliplatin and 5-fluorouracil mediated cell death [4]: protects against oxaliplatin and 5 fluorouracil mediated cell death
